{
  "source": "patent US20260209291A1",
  "about": "(KAMINO, published 2026)",
  "key": {"[1]": {"molecular_target": "TNFα (Tumor Necrosis Factor alpha) (UniProt P01375 77-233)", "sequence (P01375 77-233 limits assumed)": "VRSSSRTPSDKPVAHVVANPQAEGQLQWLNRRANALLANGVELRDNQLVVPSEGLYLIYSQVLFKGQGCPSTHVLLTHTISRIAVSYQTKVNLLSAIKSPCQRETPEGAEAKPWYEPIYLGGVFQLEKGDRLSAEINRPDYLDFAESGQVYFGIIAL", "assay": "SPR (Biacore 3000, 25 °C): compound captured to about 1,000 RU on a CM5 chip with the mouse antibody capture kit, TNFα injected for 120 s, 300 s dissociation", "procedure": "(§1) Surface plasmon resonance (SPR) experiments were carried out on a Biacore 3000 (Cytiva). A CM5 chip for capture of the compounds was prepared according to the instructions of the mouse antibody capture kit (Cytiva, #BR100838). VGFR(½)-mFc-FSD1, TNFR2-mFc-FSD1, VGFR(½)/FST291-mFc, TNFR2/FST291-mFc, VGFR(½)-hFc (Aflibercept), TNFR2-hFc (Etanercept), and FST315dHBS-mFc (SEQ ID NO: 30, SEQ ID NO: 31) were captured to approximately 1,000 RU (Resonance Units). TNFα (R&D Systems, #210-TA-005,) or VEGF (R&D Systems, #293-VE-010) were then injected for 120 s followed by a 300 s dissociation phase. At the end of each binding cycle, non-covalently attached molecules were removed from both surfaces by a 180 s regeneration with 10 mM glycine, pH 1.7. All proteins were diluted in running buffer ([…], pH 7.5, […], 2 mM CaCl₂) and 0.05% Tween 20). A flow rate of 30 μl/min was used in all steps of the experiments. Binding analysis was performed at 25° C., and data were collected at a rate of 1 Hz. Using the BIAevaluation 4.1.1 software (Cytiva), recorded signals were referenced; the signal from the in-line reference flow cell was subtracted as was the signal from a blank run (0 nM analyte)."}, "[2]": {"molecular_target": "T1, activin A (human, UniProt P08476 311-426)", "T1 sequence": "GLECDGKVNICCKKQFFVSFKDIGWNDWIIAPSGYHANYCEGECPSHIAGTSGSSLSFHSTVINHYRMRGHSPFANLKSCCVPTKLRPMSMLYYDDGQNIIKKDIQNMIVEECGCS", "assay": "cell-based or functional assay"}, "[3]": {"molecular_target": "T2, myostatin (Homo sapiens (Human), UniProt O14793 267-375)", "T2 sequence": "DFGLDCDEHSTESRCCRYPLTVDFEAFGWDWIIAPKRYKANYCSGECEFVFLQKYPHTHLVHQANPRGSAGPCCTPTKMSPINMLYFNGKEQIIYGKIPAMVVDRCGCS", "assay": "cell-based or functional assay"}, "[4]": {"molecular_target": "T3, GDF11 (Growth Differentiation Factor 11) (Homo sapiens (Human), UniProt O95390 299-407)", "T3 sequence": "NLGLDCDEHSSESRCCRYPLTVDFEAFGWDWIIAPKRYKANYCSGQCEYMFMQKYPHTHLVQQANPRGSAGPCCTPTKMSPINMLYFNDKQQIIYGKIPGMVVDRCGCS", "assay": "cell-based or functional assay"}, "[5]": {"molecular_target": "VEGF (Vascular Endothelial Growth Factor) (UniProt P15692-4 27-191)", "sequence (P15692 other isoform, or with tags, fused parts or gaps limits assumed)": "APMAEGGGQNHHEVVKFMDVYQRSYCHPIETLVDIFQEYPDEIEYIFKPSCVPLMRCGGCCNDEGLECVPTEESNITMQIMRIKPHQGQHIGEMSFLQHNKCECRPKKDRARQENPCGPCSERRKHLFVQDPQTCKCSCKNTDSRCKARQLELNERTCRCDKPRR", "assay": "SPR (Biacore 3000, 25 °C): compound captured to about 1,000 RU on a CM5 chip with the mouse antibody capture kit, VEGF injected for 120 s, 300 s dissociation", "procedure": "as §1"}, "[6]": {"molecular_target": "T1, activin A", "assay": "cell-based or functional assay", "remark": "listed apart in the source"}, "[7]": {"molecular_target": "T2, myostatin", "assay": "cell-based or functional assay", "remark": "listed apart in the source"}, "[8]": {"molecular_target": "T3, GDF11 (Growth Differentiation Factor 11)", "assay": "cell-based or functional assay", "remark": "listed apart in the source"}, "[9]": {"molecular_target": "T2, myostatin", "assay": "cell-based or functional assay", "remark": "listed apart in the source"}, "[10]": {"molecular_target": "T3, GDF11 (Growth Differentiation Factor 11)", "assay": "cell-based or functional assay", "remark": "listed apart in the source"}, "[11]": {"molecular_target": "T1, activin A", "assay": "cell-based or functional assay", "remark": "listed apart in the source"}, "[12]": {"molecular_target": "T1, activin A", "assay": "cell-based or functional assay", "remark": "listed apart in the source"}, "[13]": {"molecular_target": "T2, myostatin", "assay": "cell-based or functional assay", "remark": "listed apart in the source"}, "[14]": {"molecular_target": "T3, GDF11 (Growth Differentiation Factor 11)", "assay": "cell-based or functional assay", "remark": "listed apart in the source"}},
  "note": "Read-outs that look alike come from different tables or passages of the source.",
  "data": [
    {"binder": "TNFR2-mFc-FSD1 (Fc fusion, expressed in CHO cells; also called type 2 design compound) LPAQVAFTPYAPEPGSTCRLREYYDQTAQMCCSKCSPGQHAKVFCTKTSDTVCDSCEDSTYTQLWNWVPECLSCGSRCSSDQVETQACTREQNRICTCRPGWYCALSKQEGCRLCAPLRKCRPGFGVARPGTETSDVVCKPCAPGTFSNTTSSTDICRPHQICNVVAIPGNASMDAVCTSTSPTRSMAPGAVHLPQPVSTRSQHTQPTPEPSTAPSTSFLLPMGPSPPAEGSTGDPRGPTIKPCPPCKCPAPNLLGGPSVFIFPPKIKDVLMISLSPIVTCVVVDVSEDDPDVQISWFVNNVEVHTAQTQTHREDYNSTLRVVSALPIQHQDWMSGKEFKCKVNNKDLPAPIERTISKPKGSVRAPQVYVLPPPEEEMTKKQVTLTCMVTDFMPEDIYVEWTNNGKTELNYKNTEPVLDSDGSYFMYSKLRVEKKNWVERNSYSCSVVHEGLHNHHTTKSFSRTPGKETCENVDCGPGKKCRMNKKNKPRCVCAPDCSNITWKGPVCGLDGKTYRNECALLKARCKEQPELEVQYQGRCK", "values": [
      {"measurement": "binding result", "setting": "[1]", "value": "binds"}
    ]},
    {"binder": "VGFR(½)/FST291-mFc (Fc fusion, Fc heterodimer (knobs-in-holes, murine IgG2A); also called VGFR(1/2)/FST291-mFc; type 4 design compound) chain 1: GNCWLRQAKNGRCQVLYKTELSKEECCSTGRLSTSWTEEDVNDNTLFKWMIFNGGAPNCIPCKETCENVDCGPGKKCRMNKKNKPRCVCAPDCSNITWKGPVCGLDGKTYRNECALLKARCKEQPELEVQYQGRCKKTCRDVFCPGSSTCVVDQTNNAYCVTCNRICPEPASSEQYLCGNDGVTYSSACHLRKATCLLGRSIGLAYEGKCIKAKSCEDIQCTGGKKCLWDFKVGRGRCSLCDELCPDSKSDEPVCASDNATYASECAMKEAACSSGVLLEVKHSGSCNSISPRGPTIKPCPPCKCPAPNLLGGPSVFIFPPKIKDVLMISLSPIVTCVVVDVSEDDPDVQISWFVNNVEVHTAQTQTHREDYNSTLRVVSALPIQHQDWMSGKEFKCKVNNKDLPAPIERTISKPKGSVRAPQVYVLPPPEEEMTEKQVTLTCMVTDFMPEDIYVEWTNNGKTELNYKNTEPVLDSDGSYFMYSWLRVEKKNWVERNSYSCSVVHEGLHNHHTTKSFSRTPGK chain 2: SDTGRPFVEMYSEIPEIIHMTEGRELVIPCRVTSPNITVTLKKFPLDTLIPDGKRIIWDSRKGFIISNATYKEIGLLTCEATVNGHLYKTNYLTHRQTNTIIDVVLSPSHGIELSVGEKLVLNCTARTELNVGIDFNWEYPSSKHQHKKLVNRDLKTQSGSEMKKFLSTLTIDGVTRSDQGLYTCAASSGLMTKKNSTFVRVHEKPRGPTIKPCPPCKCPAPNLLGGPSVFIFPPKIKDVLMISLSPIVTCVVVDVSEDDPDVQISWFVNNVEVHTAQTQTHREDYNSTLRVVSALPIQHQDWMSGKEFKCKVNNKDLPAPIERTISKPKGSVRAPRVYVLPPPEEEMTKKQVTLTCMVTDFMPEDIYVEWTNNGKTELNYKNTEPVLVSDGSYTMYSKLRVEKKNWVERNSYSCSVVHEGLHNHHTTKSFSRTPGKLVPRGSHHHHHH", "values": [
      {"measurement": "IC50, neutralisation of 1 ng/mL activin A (pSmad2/3 luciferase reporter, HEK293 cells) [cont. B]", "setting": "[2]", "value": 584, "unit": "pM"},
      {"measurement": "IC50, neutralisation of 1 ng/mL myostatin (pSmad2/3 luciferase reporter, HEK293 cells) [cont. B]", "setting": "[3]", "value": 1640, "unit": "pM"},
      {"measurement": "IC50, neutralisation of 1 ng/mL GDF11 (pSmad2/3 luciferase reporter, HEK293 cells) [cont. B]", "setting": "[4]", "value": 3450, "unit": "pM"},
      {"measurement": "binding result", "setting": "[5]", "value": "binds"}
    ]},
    {"binder": "TNFR2/FST291-mFc (Fc fusion, Fc heterodimer (knobs-in-holes, murine IgG2A); also called type 4 design compound) chain 1: GNCWLRQAKNGRCQVLYKTELSKEECCSTGRLSTSWTEEDVNDNTLFKWMIFNGGAPNCIPCKETCENVDCGPGKKCRMNKKNKPRCVCAPDCSNITWKGPVCGLDGKTYRNECALLKARCKEQPELEVQYQGRCKKTCRDVFCPGSSTCVVDQTNNAYCVTCNRICPEPASSEQYLCGNDGVTYSSACHLRKATCLLGRSIGLAYEGKCIKAKSCEDIQCTGGKKCLWDFKVGRGRCSLCDELCPDSKSDEPVCASDNATYASECAMKEAACSSGVLLEVKHSGSCNSISPRGPTIKPCPPCKCPAPNLLGGPSVFIFPPKIKDVLMISLSPIVTCVVVDVSEDDPDVQISWFVNNVEVHTAQTQTHREDYNSTLRVVSALPIQHQDWMSGKEFKCKVNNKDLPAPIERTISKPKGSVRAPQVYVLPPPEEEMTEKQVTLTCMVTDFMPEDIYVEWTNNGKTELNYKNTEPVLDSDGSYFMYSWLRVEKKNWVERNSYSCSVVHEGLHNHHTTKSFSRTPGK chain 2: LPAQVAFTPYAPEPGSTCRLREYYDQTAQMCCSKCSPGQHAKVFCTKTSDTVCDSCEDSTYTQLWNWVPECLSCGSRCSSDQVETQACTREQNRICTCRPGWYCALSKQEGCRLCAPLRKCRPGFGVARPGTETSDVVCKPCAPGTFSNTTSSTDICRPHQICNVVAIPGNASMDAVCTSTSPTRSMAPGAVHLPQPVSTRSQHTQPTPEPSTAPSTSFLLPMGPSPPAEGSTGDPRGPTIKPCPPCKCPAPNLLGGPSVFIFPPKIKDVLMISLSPIVTCVVVDVSEDDPDVQISWFVNNVEVHTAQTQTHREDYNSTLRVVSALPIQHQDWMSGKEFKCKVNNKDLPAPIERTISKPKGSVRAPRVYVLPPPEEEMTKKQVTLTCMVTDFMPEDIYVEWTNNGKTELNYKNTEPVLVSDGSYTMYSKLRVEKKNWVERNSYSCSVVHEGLHNHHTTKSFSRTPGKLVPRGSHHHHHH", "values": [
      {"measurement": "IC50, neutralisation of 1 ng/mL activin A (pSmad2/3 luciferase reporter, HEK293 cells) [cont. C]", "setting": "[6]", "value": 525, "unit": "pM"},
      {"measurement": "IC50, neutralisation of 1 ng/mL myostatin (pSmad2/3 luciferase reporter, HEK293 cells) [cont. C]", "setting": "[7]", "value": 1610, "unit": "pM"},
      {"measurement": "IC50, neutralisation of 1 ng/mL GDF11 (pSmad2/3 luciferase reporter, HEK293 cells) [cont. C]", "setting": "[8]", "value": 4490, "unit": "pM"},
      {"measurement": "binding result", "setting": "[1]", "value": "binds"}
    ]},
    {"binder": "VGFR(½)-mFc-FSD1 (Fc fusion, expressed in CHO cells; also called VGFR(1/2)-mFc-FSD1; type 2 design compound) SDTGRPFVEMYSEIPEIIHMTEGRELVIPCRVTSPNITVTLKKFPLDTLIPDGKRIIWDSRKGFIISNATYKEIGLLTCEATVNGHLYKTNYLTHRQTNTIIDVVLSPSHGIELSVGEKLVLNCTARTELNVGIDFNWEYPSSKHQHKKLVNRDLKTQSGSEMKKFLSTLTIDGVTRSDQGLYTCAASSGLMTKKNSTFVRVHEKPRGPTIKPCPPCKCPAPNLLGGPSVFIFPPKIKDVLMISLSPIVTCVVVDVSEDDPDVQISWFVNNVEVHTAQTQTHREDYNSTLRVVSALPIQHQDWMSGKEFKCKVNNKDLPAPIERTISKPKGSVRAPQVYVLPPPEEEMTKKQVTLTCMVTDFMPEDIYVEWTNNGKTELNYKNTEPVLDSDGSYFMYSKLRVEKKNWVERNSYSCSVVHEGLHNHHTTKSFSRTPGKETCENVDCGPGKKCRMNKKNKPRCVCAPDCSNITWKGPVCGLDGKTYRNECALLKARCKEQPELEVQYQGRCK", "values": [
      {"measurement": "IC50, neutralisation of 1 ng/mL myostatin (pSmad2/3 luciferase reporter, HEK293 cells) [cont. B]", "setting": "[9]", "value": 37, "unit": "nM"},
      {"measurement": "IC50, neutralisation of 1 ng/mL GDF11 (pSmad2/3 luciferase reporter, HEK293 cells) [cont. C]", "setting": "[10]", "value": 21, "unit": "nM"},
      {"measurement": "IC50, neutralisation of 1 ng/mL activin A (pSmad2/3 luciferase reporter, HEK293 cells)", "setting": "[11]", "value": 18, "unit": "nM"},
      {"measurement": "binding result", "setting": "[5]", "value": "binds"}
    ]},
    {"binder": "native full-length follistatin315 (FST315) (other) GNCWLRQAKNGRCQVLYKTELSKEECCSTGRLSTSWTEEDVNDNTLFKWMIFNGGAPNCIPCKETCENVDCGPGKKCRMNKKNKPRCVCAPDCSNITWKGPVCGLDGKTYRNECALLKARCKEQPELEVQYQGRCKKTCRDVFCPGSSTCVVDQTNNAYCVTCNRICPEPASSEQYLCGNDGVTYSSACHLRKATCLLGRSIGLAYEGKCIKAKSCEDIQCTGGKKCLWDFKVGRGRCSLCDELCPDSKSDEPVCASDNATYASECAMKEAACSSGVLLEVKHSGSCNSISEDTEEEEEDEDQDYSFPISSILEW", "values": [
      {"measurement": "IC50, neutralisation of 1 ng/mL activin A (pSmad2/3 luciferase reporter, HEK293 cells)", "setting": "[12]", "value": 53, "unit": "pM"},
      {"measurement": "IC50, neutralisation of 1 ng/mL myostatin (pSmad2/3 luciferase reporter, HEK293 cells)", "setting": "[13]", "value": 210, "unit": "pM"},
      {"measurement": "IC50, neutralisation of 1 ng/mL GDF11 (pSmad2/3 luciferase reporter, HEK293 cells)", "setting": "[14]", "value": 119, "unit": "pM"}
    ]}
  ]
}
